Ends that are not written are not given here. * marks the point of attachment. 5FAM = O=C1OC2(c3ccc(O)cc3Oc3cc(O)ccc32)c2ccc(C(=O)*)cc21

T1: PXR LBD (residues 130-434), the LBD part of the crystallised fusion chain (human, UniProt O75469 130-434)
T1 sequence (looked up): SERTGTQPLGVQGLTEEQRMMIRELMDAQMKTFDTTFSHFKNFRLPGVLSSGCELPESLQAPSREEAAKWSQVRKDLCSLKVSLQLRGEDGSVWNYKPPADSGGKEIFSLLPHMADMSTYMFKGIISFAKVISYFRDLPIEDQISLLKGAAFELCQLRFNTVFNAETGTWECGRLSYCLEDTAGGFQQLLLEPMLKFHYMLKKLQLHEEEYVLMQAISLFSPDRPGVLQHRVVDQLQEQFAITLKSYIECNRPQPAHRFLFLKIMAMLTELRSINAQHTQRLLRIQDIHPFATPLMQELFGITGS

T2: RXRα LBD (residues 227-462), the LBD part of the crystallised fusion chain (human, UniProt P19793 227-462)
T2 sequence (looked up): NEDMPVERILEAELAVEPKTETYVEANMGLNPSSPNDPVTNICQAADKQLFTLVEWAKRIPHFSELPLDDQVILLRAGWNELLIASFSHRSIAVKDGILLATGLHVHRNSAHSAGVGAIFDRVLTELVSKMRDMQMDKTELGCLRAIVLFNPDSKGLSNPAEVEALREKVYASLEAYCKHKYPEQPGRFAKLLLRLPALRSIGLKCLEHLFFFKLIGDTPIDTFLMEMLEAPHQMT

T3: wild-type PXR LBD without the fused coactivator peptide (human, UniProt O75469 130-434)
T3 sequence (looked up): T1 sequence (looked up)

T4: wild-type RXRα LBD without the fused coactivator peptide (human, UniProt P19793 227-462)
T4 sequence (looked up): T2 sequence (looked up)

B1: PXR/RXRα LBD heterotetramer complex of SRC-1 fused PXR LBD with unfused RXRα LBD (complex, human)
chain 1: T2 sequence (looked up)
chain 2: SERTGTQPLGVQGLTEEQRMMIRELMDAQMKTFDTTFSHFKNFRLPGVLSSGCELPESLQAPSREEAAKWSQVRKDLCSLKVSLQLRGEDGSVWNYKPPADSGGKEIFSLLPHMADMSTYMFKGIISFAKVISYFRDLPIEDQISLLKGAAFELCQLRFNTVFNAETGTWECGRLSYCLEDTAGGFQQLLLEPMLKFHYMLKKLQLHEEEYVLMQAISLFSPDRPGVLQHRVVDQLQEQFAITLKSYIECNRPQPAHRFLFLKIMAMLTELRSINAQHTQRLLRIQDIHPFATPLMQELFGITGSGGSGGSSHSSLTERHKILHRLLQEGSPS
B2: human SRC-1 coactivator fragment (residues 678-700), as it stands fused to the C-termini of the crystallised LBDs (peptide)
peptide: SSHSSLTERHKILHRLLQEGSPS
B3: fluorescein labeled SRC-1 peptide (5-FAM-[residues removed]), residues 676-700 (peptide)
peptide: 5FAM-CPSSHSSLTERHKILHRLLQEGSPS
B4: PXR/RXRα LBD heterotetramer complex of unfused PXR LBD with SRC-1-fused RXRα LBD (complex, human)
chain 1: T1 sequence (looked up)
chain 2: NEDMPVERILEAELAVEPKTETYVEANMGLNPSSPNDPVTNICQAADKQLFTLVEWAKRIPHFSELPLDDQVILLRAGWNELLIASFSHRSIAVKDGILLATGLHVHRNSAHSAGVGAIFDRVLTELVSKMRDMQMDKTELGCLRAIVLFNPDSKGLSNPAEVEALREKVYASLEAYCKHKYPEQPGRFAKLLLRLPALRSIGLKCLEHLFFFKLIGDTPIDTFLMEMLEAPHQMTGGSGGSSHSSLTERHKILHRLLQEGSPS

Test [1] has as its target B3. Description: fluorescence polarisation.
Test [2] has as its target T1, PXR LBD (residues 130-434), the LBD …. As to the kind of experiment: crystal structure.
Test [3] has as its target T2, RXRα LBD (residues 227-462), the LBD …. As to the kind of experiment: crystal structure.
The target of test [4] is T3, wild-type PXR LBD without the fused …. Description: fluorescence polarisation.
The target in test [5] is T4, wild-type RXRα LBD without the fused …. As to the kind of experiment: fluorescence polarisation.

In test [1], B1 returned a Kd of 778 ± 88.8 nM.
Turning to B2, the binding result in test [2] and in test [3] was “binds” in each case.
Turning to B3, the Kd in test [4] amounted to 1180 ± 92.2 nM; in test [5], 1560 ± 198 nM.
The molecule B4 displayed a Kd in test [1] of 588 ± 29.7 nM.

For the origin of these results see publication PMC3699901 (Journal of molecular biology, 2013).
